Source: paper doi:10.1101/2025.10.28.685041

Target: Rhs2 C-terminal toxin domain (Rhs2CT), His6 tag removed, as in the Rhs2CT-RhsI2-EF-Tu complex (Serratia marcescens Db10)
Assay: SEC

| Substance | stoichiometry N |
| --- | --- |
| E. coli elongation factor thermo-unstable (EF-Tu) (from UniProt P0CE47 1-394) (natural protein) | 1 |
| RhsI2 immunity protein, untagged (natural protein) | 1 |
